Experimental findings from patent US20140023630A1 (REGENTS OF THE UNIVERSITY OF COLORADO A BODY CORPORATE, published 2014) are described below.

The data set deals with the molecule itself. Description: self-association; native PAGE and Western blot of E. coli lysate soluble fraction. As to the method:
Western blot analysis of crude cell lysates under both denaturing and native conditions was performed as described previously (Janosik, 2001, supra) with some modifications. Soluble fractions of E. coli lysates containing the expressed mutant proteins were mixed with sample buffer and run on a 6% native PAGE without a stacking gel. The final composition of the sample buffer was: 50 mM Tris-HCl, pH 8.9, 1 mM DTT, 10% glycerol, 0.001% bromphenol blue. Detection of heme was performed using a previously described method that relies on heme peroxidase activity (Vargas et al., 1993, Anal. Biochem. 209(2), 323-6).
(A western blot detects proteins with antibodies after separation by electrophoresis.)

B1: human CBS deletion mutant Δ1-70 (enzyme)
chain: AKSPKILPDILKKIGDTPMVRINKIGKKFGLKCELLAKCEFFNAGGSVKDRISLRMIEDAERDGTLKPGDTIIEPTSGNTGIGLALAAAVRGYRCIIVMPEKMSSEKVDVLRALGAEIVRTPTNARFDSPESHVGVAWRLKNEIPNSHILDQYRNASNPLAHYDTTADEILQQCDGKLDMLVASVGTGGTITGIARKLKEKCPGCRIIGVDPEGSILAEPEELNQTEQTTYEVEGIGYDFIPTVLDRTVVDKWFKSNDEEAFTFARMLIAQEGLLCGGSAGSTVAVAVKAAQELQEGQRCVVILPDSVRNYMTKFLSDRWMLQKGFLKEEDLTEKKPWWWHLRVQELGLSAPLTVLPTITCGHTIEILREKGFDQAPVVDEAGVILGMVTLGNMLSSLLAGKVQPSDQVGKVIYKQFKQIRLTDTLGRLSHILEMDHFALVVHEQIQYHSTGKSSQRQMVFGVVTAIDLLNFVAAQERDQK
notes: The sense primer brings in an Nco I site at the 5' end; No fusion partner, E. coli lysate; Reported as a tetramer; also called pKK CBS Δ1-70
On to B1, for which the binding result is “binds”.

B2: human CBS double deletion mutant Δ1-70 Δ401-551 (expressed without fusion partner) (enzyme)
chain: AKSPKILPDILKKIGDTPMVRINKIGKKFGLKCELLAKCEFFNAGGSVKDRISLRMIEDAERDGTLKPGDTIIEPTSGNTGIGLALAAAVRGYRCIIVMPEKMSSEKVDVLRALGAEIVRTPTNARFDSPESHVGVAWRLKNEIPNSHILDQYRNASNPLAHYDTTADEILQQCDGKLDMLVASVGTGGTITGIARKLKEKCPGCRIIGVDPEGSILAEPEELNQTEQTTYEVEGIGYDFIPTVLDRTVVDKWFKSNDEEAFTFARMLIAQEGLLCGGSAGSTVAVAVKAAQELQEGQRCVVILPDSVRNYMTKFLSDRWMLQKGFLKEE
notes: pKK construct; E. coli lysate; Reported as a dimer; also called CBS DD
Take B2: the binding result was “binds”.

B3: human CBS deletion mutant Δ1-39 (enzyme)
chain: EPLWIRPDAPSRCTWQLGRPASESPHHHTAPAKSPKILPDILKKIGDTPMVRINKIGKKFGLKCELLAKCEFFNAGGSVKDRISLRMIEDAERDGTLKPGDTIIEPTSGNTGIGLALAAAVRGYRCIIVMPEKMSSEKVDVLRALGAEIVRTPTNARFDSPESHVGVAWRLKNEIPNSHILDQYRNASNPLAHYDTTADEILQQCDGKLDMLVASVGTGGTITGIARKLKEKCPGCRIIGVDPEGSILAEPEELNQTEQTTYEVEGIGYDFIPTVLDRTVVDKWFKSNDEEAFTFARMLIAQEGLLCGGSAGSTVAVAVKAAQELQEGQRCVVILPDSVRNYMTKFLSDRWMLQKGFLKEEDLTEKKPWWWHLRVQELGLSAPLTVLPTITCGHTIEILREKGFDQAPVVDEAGVILGMVTLGNMLSSLLAGKVQPSDQVGKVIYKQFKQIRLTDTLGRLSHILEMDHFALVVHEQIQYHSTGKSSQRQMVFGVVTAIDLLNFVAAQERDQK
notes: The sense primer brings in an Nco I site at the 5' end; No fusion partner, E. coli lysate; Reported as a tetramer; also called pKK CBS Δ1-39
As for B3, the binding result is “binds”.

B4: human CBS deletion mutant Δ489-551 (enzyme)
chain: MPSETPQAEVGPTGCPHRSGPHSAKGSLEKGSPEDKEAKEPLWIRPDAPSRCTWQLGRPASESPHHHTAPAKSPKILPDILKKIGDTPMVRINKIGKKFGLKCELLAKCEFFNAGGSVKDRISLRMIEDAERDGTLKPGDTIIEPTSGNTGIGLALAAAVRGYRCIIVMPEKMSSEKVDVLRALGAEIVRTPTNARFDSPESHVGVAWRLKNEIPNSHILDQYRNASNPLAHYDTTADEILQQCDGKLDMLVASVGTGGTITGIARKLKEKCPGCRIIGVDPEGSILAEPEELNQTEQTTYEVEGIGYDFIPTVLDRTVVDKWFKSNDEEAFTFARMLIAQEGLLCGGSAGSTVAVAVKAAQELQEGQRCVVILPDSVRNYMTKFLSDRWMLQKGFLKEEDLTEKKPWWWHLRVQELGLSAPLTVLPTITCGHTIEILREKGFDQAPVVDEAGVILGMVTLGNMLSSLLAGKVQPSDQVGKVIYKQFK
notes: No fusion partner, E. coli lysate; Reported as a dimer
With B4, the binding result is on record as “binds”.

B5: human CBS deletion mutant Δ414-551 (enzyme)
chain: MPSETPQAEVGPTGCPHRSGPHSAKGSLEKGSPEDKEAKEPLWIRPDAPSRCTWQLGRPASESPHHHTAPAKSPKILPDILKKIGDTPMVRINKIGKKFGLKCELLAKCEFFNAGGSVKDRISLRMIEDAERDGTLKPGDTIIEPTSGNTGIGLALAAAVRGYRCIIVMPEKMSSEKVDVLRALGAEIVRTPTNARFDSPESHVGVAWRLKNEIPNSHILDQYRNASNPLAHYDTTADEILQQCDGKLDMLVASVGTGGTITGIARKLKEKCPGCRIIGVDPEGSILAEPEELNQTEQTTYEVEGIGYDFIPTVLDRTVVDKWFKSNDEEAFTFARMLIAQEGLLCGGSAGSTVAVAVKAAQELQEGQRCVVILPDSVRNYMTKFLSDRWMLQKGFLKEEDLTEKKPWWWHLR
notes: Lacks the entire C-terminal regulatory region; No fusion partner, E. coli lysate; Reported as a dimer
B5: the binding result is on record as “binds”.

B6: human CBS deletion mutant Δ497-551 (enzyme)
chain: MPSETPQAEVGPTGCPHRSGPHSAKGSLEKGSPEDKEAKEPLWIRPDAPSRCTWQLGRPASESPHHHTAPAKSPKILPDILKKIGDTPMVRINKIGKKFGLKCELLAKCEFFNAGGSVKDRISLRMIEDAERDGTLKPGDTIIEPTSGNTGIGLALAAAVRGYRCIIVMPEKMSSEKVDVLRALGAEIVRTPTNARFDSPESHVGVAWRLKNEIPNSHILDQYRNASNPLAHYDTTADEILQQCDGKLDMLVASVGTGGTITGIARKLKEKCPGCRIIGVDPEGSILAEPEELNQTEQTTYEVEGIGYDFIPTVLDRTVVDKWFKSNDEEAFTFARMLIAQEGLLCGGSAGSTVAVAVKAAQELQEGQRCVVILPDSVRNYMTKFLSDRWMLQKGFLKEEDLTEKKPWWWHLRVQELGLSAPLTVLPTITCGHTIEILREKGFDQAPVVDEAGVILGMVTLGNMLSSLLAGKVQPSDQVGKVIYKQFKQIRLTDTL
notes: as for B4
Consider B6, for which the binding result is “binds”.

B7: human CBS deletion mutant Δ544-551 (enzyme)
chain: MPSETPQAEVGPTGCPHRSGPHSAKGSLEKGSPEDKEAKEPLWIRPDAPSRCTWQLGRPASESPHHHTAPAKSPKILPDILKKIGDTPMVRINKIGKKFGLKCELLAKCEFFNAGGSVKDRISLRMIEDAERDGTLKPGDTIIEPTSGNTGIGLALAAAVRGYRCIIVMPEKMSSEKVDVLRALGAEIVRTPTNARFDSPESHVGVAWRLKNEIPNSHILDQYRNASNPLAHYDTTADEILQQCDGKLDMLVASVGTGGTITGIARKLKEKCPGCRIIGVDPEGSILAEPEELNQTEQTTYEVEGIGYDFIPTVLDRTVVDKWFKSNDEEAFTFARMLIAQEGLLCGGSAGSTVAVAVKAAQELQEGQRCVVILPDSVRNYMTKFLSDRWMLQKGFLKEEDLTEKKPWWWHLRVQELGLSAPLTVLPTITCGHTIEILREKGFDQAPVVDEAGVILGMVTLGNMLSSLLAGKVQPSDQVGKVIYKQFKQIRLTDTLGRLSHILEMDHFALVVHEQIQYHSTGKSSQRQMVFGVVTAIDLLNFV
notes: No fusion partner, E. coli lysate; Reported as a tetramer
For the protein B7, the binding result was “binds”.

B8: human CBS deletion mutant Δ442-551 (enzyme)
chain: MPSETPQAEVGPTGCPHRSGPHSAKGSLEKGSPEDKEAKEPLWIRPDAPSRCTWQLGRPASESPHHHTAPAKSPKILPDILKKIGDTPMVRINKIGKKFGLKCELLAKCEFFNAGGSVKDRISLRMIEDAERDGTLKPGDTIIEPTSGNTGIGLALAAAVRGYRCIIVMPEKMSSEKVDVLRALGAEIVRTPTNARFDSPESHVGVAWRLKNEIPNSHILDQYRNASNPLAHYDTTADEILQQCDGKLDMLVASVGTGGTITGIARKLKEKCPGCRIIGVDPEGSILAEPEELNQTEQTTYEVEGIGYDFIPTVLDRTVVDKWFKSNDEEAFTFARMLIAQEGLLCGGSAGSTVAVAVKAAQELQEGQRCVVILPDSVRNYMTKFLSDRWMLQKGFLKEEDLTEKKPWWWHLRVQELGLSAPLTVLPTITCGHTIEILREK
notes: as for B4
Consider B8, for which the binding result is listed as “binds”.

B9: human CBS deletion mutant Δ551 (enzyme)
chain: MPSETPQAEVGPTGCPHRSGPHSAKGSLEKGSPEDKEAKEPLWIRPDAPSRCTWQLGRPASESPHHHTAPAKSPKILPDILKKIGDTPMVRINKIGKKFGLKCELLAKCEFFNAGGSVKDRISLRMIEDAERDGTLKPGDTIIEPTSGNTGIGLALAAAVRGYRCIIVMPEKMSSEKVDVLRALGAEIVRTPTNARFDSPESHVGVAWRLKNEIPNSHILDQYRNASNPLAHYDTTADEILQQCDGKLDMLVASVGTGGTITGIARKLKEKCPGCRIIGVDPEGSILAEPEELNQTEQTTYEVEGIGYDFIPTVLDRTVVDKWFKSNDEEAFTFARMLIAQEGLLCGGSAGSTVAVAVKAAQELQEGQRCVVILPDSVRNYMTKFLSDRWMLQKGFLKEEDLTEKKPWWWHLRVQELGLSAPLTVLPTITCGHTIEILREKGFDQAPVVDEAGVILGMVTLGNMLSSLLAGKVQPSDQVGKVIYKQFKQIRLTDTLGRLSHILEMDHFALVVHEQIQYHSTGKSSQRQMVFGVVTAIDLLNFVAAQERDQ
notes: Lacks the C-terminal lysine; No fusion partner, E. coli lysate; Reported as a tetramer; also called pKK CBS Δ551
Take B9: the binding result was “binds”.
